Target: T1, RNase A (Bos taurus (assumed; commercial RNase …, UniProt P61823)
T1 construct: RNase A (ribonuclease A), about 13.7 kDa, commercial; also called ribonuclease A; source: bought: Biofroxx (1263MG050)
Assay: SPR; BIAcore T200, CM5 chip; Asp. VHH captured on flow cell 4; RNase A injected at 0, 2, 10, 50 nM, multi-cycle kinetics; HBS-EP+ pH 7.4; 25 °C; 1:1 binding model
Details: both partners purified

T1 sequence (P61823 27-150): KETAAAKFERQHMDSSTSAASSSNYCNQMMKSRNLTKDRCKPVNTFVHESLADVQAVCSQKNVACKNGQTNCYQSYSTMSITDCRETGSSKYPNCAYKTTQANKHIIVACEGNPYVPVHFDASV

Kd: 1.91 nM
B1: anti-RNase A VHH expressed in pyrG auxotrophic Aspergillus oryzae (VHH)
VHH: QVQLVESGGGLVQAGGSLRLSCAASGYAYTYIYMGWFRQAPGKEREGVAAMDSGGGGTLYADSVKGRFTISRDKGKNTVYLQMDSLKPEDTATYYCAAGGYELRDRTYGQWGQGTQVTVSS
notes: DNA codon-optimized; about 13 kDa; also called Asp; VHH; anti-ribonuclease A VHH; source: pyrG(-) A. oryzae RIB40, secreted into the culture medium, purified (Ni-NTA IMAC, PD-10 desalting, Superdex 200 SEC); not shown: 8xHis, C-terminal, kept
